{"source": "paper PMC3154423", "binders": {"B1": {"name": "TRE duplex 15-mer (dsDNA)", "DNA 1": "CGCGTGACTCACCCC", "DNA 2": "GGGGTGAGTCACGCG"}}, "test_in_all_cases": "ITC", "key": {"[1]": {"target": "Jun bZIP R263A;Fos bZIP R146A (human;human, UniProt P05412;P01100 252-315;137-200, R263A|R146A)", "sequence (P05412 252-315 R263A, chain 1 of 2)": "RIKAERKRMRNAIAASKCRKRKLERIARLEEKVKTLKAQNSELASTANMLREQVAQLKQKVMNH", "sequence (P01100 137-200 R146A, chain 2 of 2)": "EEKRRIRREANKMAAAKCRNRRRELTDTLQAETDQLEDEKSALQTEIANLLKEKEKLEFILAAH"}, "[2]": {"target": "Jun bZIP K273A;Fos bZIP R144A (human;human, UniProt P05412;P01100 252-315;137-200, K273A|R144A)", "sequence (P05412 252-315 K273A, chain 1 of 2)": "as the sequence (P05412 252-315 R263A, chain 1 of 2) above, with A12R, K22A counted along it", "sequence (P01100 137-200 R144A, chain 2 of 2)": "as the sequence (P01100 137-200 R146A, chain 2 of 2) above, with R8A, A10R counted along it"}, "[3]": {"target": "Jun bZIP K273A;Fos bZIP R143A (human;human, UniProt P05412;P01100 252-315;137-200, K273A|R143A)", "sequence (P05412 252-315 K273A, chain 1 of 2)": "as the sequence (P05412 252-315 R263A, chain 1 of 2) above, with A12R, K22A counted along it", "sequence (P01100 137-200 R143A, chain 2 of 2)": "as the sequence (P01100 137-200 R146A, chain 2 of 2) above, with R7A, A10R counted along it"}, "[4]": {"target": "Jun bZIP K273A;Fos bZIP R158A (human;human, UniProt P05412;P01100 252-315;137-200, K273A|R158A)", "sequence (P05412 252-315 K273A, chain 1 of 2)": "as the sequence (P05412 252-315 R263A, chain 1 of 2) above, with A12R, K22A counted along it", "sequence (P01100 137-200 R158A, chain 2 of 2)": "as the sequence (P01100 137-200 R146A, chain 2 of 2) above, with A10R, R22A counted along it"}, "[5]": {"target": "Jun bZIP R261A;Fos bZIP R155A (human;human, UniProt P05412;P01100 252-315;137-200, R261A|R155A)", "sequence (P05412 252-315 R261A, chain 1 of 2)": "as the sequence (P05412 252-315 R263A, chain 1 of 2) above, with R10A, A12R counted along it", "sequence (P01100 137-200 R155A, chain 2 of 2)": "as the sequence (P01100 137-200 R146A, chain 2 of 2) above, with A10R, R19A counted along it"}, "[6]": {"target": "Jun bZIP R261A;Fos bZIP K148A (human;human, UniProt P05412;P01100 252-315;137-200, R261A|K148A)", "sequence (P05412 252-315 R261A, chain 1 of 2)": "as the sequence (P05412 252-315 R263A, chain 1 of 2) above, with R10A, A12R counted along it", "sequence (P01100 137-200 K148A, chain 2 of 2)": "as the sequence (P01100 137-200 R146A, chain 2 of 2) above, with A10R, K12A counted along it"}, "[7]": {"target": "Jun bZIP K268A;Fos bZIP R144A (human;human, UniProt P05412;P01100 252-315;137-200, K268A|R144A)", "sequence (P05412 252-315 K268A, chain 1 of 2)": "as the sequence (P05412 252-315 R263A, chain 1 of 2) above, with A12R, K17A counted along it", "sequence (P01100 137-200 R144A, chain 2 of 2)": "as the sequence (P01100 137-200 R146A, chain 2 of 2) above, with R8A, A10R counted along it"}, "Jun-Jun bZIP R259A": {"target": "Jun-Jun bZIP R259A (human, UniProt P05412 252-315, R259A)", "sequence (P05412 252-315 R259A)": "as the sequence (P05412 252-315 R263A, chain 1 of 2) above, with R8A, A12R counted along it"}, "[8]": {"target": "Jun bZIP R259A;Fos bZIP R144A (human;human, UniProt P05412;P01100 252-315;137-200, R259A|R144A)", "sequence (P05412 252-315 R259A, chain 1 of 2)": "as the sequence (P05412 252-315 R263A, chain 1 of 2) above, with R8A, A12R counted along it", "sequence (P01100 137-200 R144A, chain 2 of 2)": "as the sequence (P01100 137-200 R146A, chain 2 of 2) above, with R8A, A10R counted along it"}, "Jun-Jun bZIP K273A": {"target": "Jun-Jun bZIP K273A (human, UniProt P05412 252-315, K273A)", "sequence (P05412 252-315 K273A)": "as the sequence (P05412 252-315 R263A, chain 1 of 2) above, with A12R, K22A counted along it"}, "[9]": {"target": "Jun bZIP R261A;Fos bZIP R157A (human;human, UniProt P05412;P01100 252-315;137-200, R261A|R157A)", "sequence (P05412 252-315 R261A, chain 1 of 2)": "as the sequence (P05412 252-315 R263A, chain 1 of 2) above, with R10A, A12R counted along it", "sequence (P01100 137-200 R157A, chain 2 of 2)": "as the sequence (P01100 137-200 R146A, chain 2 of 2) above, with A10R, R21A counted along it"}, "[10]": {"target": "Jun bZIP R272A;Fos bZIP R157A (human;human, UniProt P05412;P01100 252-315;137-200, R272A|R157A)", "sequence (P05412 252-315 R272A, chain 1 of 2)": "as the sequence (P05412 252-315 R263A, chain 1 of 2) above, with A12R, R21A counted along it", "sequence (P01100 137-200 R157A, chain 2 of 2)": "as the sequence (P01100 137-200 R146A, chain 2 of 2) above, with A10R, R21A counted along it"}, "Jun-Jun bZIP K258A": {"target": "Jun-Jun bZIP K258A (human, UniProt P05412 252-315, K258A)", "sequence (P05412 252-315 K258A)": "as the sequence (P05412 252-315 R263A, chain 1 of 2) above, with K7A, A12R counted along it"}, "[11]": {"target": "Jun bZIP K268A;Fos bZIP R158A (human;human, UniProt P05412;P01100 252-315;137-200, K268A|R158A)", "sequence (P05412 252-315 K268A, chain 1 of 2)": "as the sequence (P05412 252-315 R263A, chain 1 of 2) above, with A12R, K17A counted along it", "sequence (P01100 137-200 R158A, chain 2 of 2)": "as the sequence (P01100 137-200 R146A, chain 2 of 2) above, with A10R, R22A counted along it"}, "[12]": {"target": "Jun bZIP R259A;Fos bZIP K153A (human;human, UniProt P05412;P01100 252-315;137-200, R259A|K153A)", "sequence (P05412 252-315 R259A, chain 1 of 2)": "as the sequence (P05412 252-315 R263A, chain 1 of 2) above, with R8A, A12R counted along it", "sequence (P01100 137-200 K153A, chain 2 of 2)": "as the sequence (P01100 137-200 R146A, chain 2 of 2) above, with A10R, K17A counted along it"}, "[13]": {"target": "Jun bZIP K268A;Fos bZIP K153A (human;human, UniProt P05412;P01100 252-315;137-200, K268A|K153A)", "sequence (P05412 252-315 K268A, chain 1 of 2)": "as the sequence (P05412 252-315 R263A, chain 1 of 2) above, with A12R, K17A counted along it", "sequence (P01100 137-200 K153A, chain 2 of 2)": "as the sequence (P01100 137-200 R146A, chain 2 of 2) above, with A10R, K17A counted along it"}, "[14]": {"target": "Jun bZIP R263A;Fos bZIP R143A (human;human, UniProt P05412;P01100 252-315;137-200, R263A|R143A)", "sequence (P05412 252-315 R263A, chain 1 of 2)": "as the sequence (P05412 252-315 R263A, chain 1 of 2) above", "sequence (P01100 137-200 R143A, chain 2 of 2)": "as the sequence (P01100 137-200 R146A, chain 2 of 2) above, with R7A, A10R counted along it"}}}
{"binder": "B1", "values": [{"measurement": "Kd", "setting": "[1]", "result": "1040 ± 40", "unit": "nM"}, {"measurement": "Kd", "setting": "[2]", "result": "3590 ± 300", "unit": "nM"}, {"measurement": "Kd", "setting": "[3]", "result": "1220 ± 150", "unit": "nM"}, {"measurement": "Kd", "setting": "[4]", "result": "680 ± 30", "unit": "nM"}, {"measurement": "Kd", "setting": "[5]", "result": "2460 ± 30", "unit": "nM"}, {"measurement": "Kd", "setting": "[6]", "result": "950 ± 60", "unit": "nM"}, {"measurement": "Kd", "setting": "[7]", "result": "1790 ± 20", "unit": "nM"}, {"measurement": "Kd", "setting": "Jun-Jun bZIP R259A", "result": "5250 ± 60", "unit": "nM"}, {"measurement": "Kd", "setting": "[8]", "result": "15800 ± 620", "unit": "nM"}, {"measurement": "Kd", "setting": "Jun-Jun bZIP K273A", "result": "6520 ± 750", "unit": "nM"}, {"measurement": "Kd", "setting": "[9]", "result": "890 ± 30", "unit": "nM"}, {"measurement": "Kd", "setting": "[10]", "result": "430 ± 20", "unit": "nM"}, {"measurement": "Kd", "setting": "Jun-Jun bZIP K258A", "result": "4430 ± 190", "unit": "nM"}, {"measurement": "Kd", "setting": "[11]", "result": "430 ± 20", "unit": "nM"}, {"measurement": "Kd", "setting": "[12]", "result": "1720 ± 150", "unit": "nM"}, {"measurement": "Kd", "setting": "[13]", "result": "470 ± 60", "unit": "nM"}, {"measurement": "Kd", "setting": "[14]", "result": "2250 ± 50", "unit": "nM"}]}
